Results: article PMC5750132
Where two headings read alike, the source gives them in different places.

Tests used:
[1] = biological target: Truncated mouse TMEM16A (amino acids 1-903) (mouse); assay: cryo-EM structure
[2] = biological target: Truncated mouse TMEM16A (amino acids 1-903) (mouse); assay: cryo-EM structure; remark: listed apart in the source

stoichiometry N [1]: 2
stoichiometry N [2]: 2
Substance: Truncated mouse TMEM16A (amino acids 1-903) (domain or fragment)
